Laboratory results from PMC4579573.
Blank lines part the entries; values can stand above or below the substance they belong to.

How the values were obtained:
[1] = molecular target: K63-linked diUb covalently coupled to AlexaFluor-488 (UniProt P0CG48); assay: fluorescence polarisation; complex titrated against 10 nM AlexaFluor-488 K63-linked diUb tracer
[2] = molecular target: Cf BRCC36–KIAA0157 binary complex (C. floridanus) (UniProt E2AXC7); assay: SEC-MALS; complexes and subcomplexes purified from insect cells; size exclusion chromatography coupled to multi-angle light scattering (Figures S1B-E and S8E-G)
[3] = as above
[4] = molecular target: CfBRCC36(Ala205Asp + Ile212Asp)–KIAA0157ΔC heterodimer (C. floridanus); assay: as above
[5] = molecular target: CfBRCC36(Ala205Asp)–KIAA0157ΔC heterodimer (C. floridanus)
[6] = molecular target: CfBRCC36(Ile212Asp)–KIAA0157ΔC heterodimer (C. floridanus)
[7] = molecular target: unlabeled K63 linked diUb (UniProt P0CG48)
[8] = molecular target: CfBRCC36–KIAA0157ΔC heterodimer (C. floridanus); assay: SEC-MALS; complexes and subcomplexes purified from insect cells; size exclusion chromatography coupled to multi-angle light scattering (Figures S1B-E and S8E-G)
[9] = molecular target: CfBRCC36–KIAA0157–BRCC45 triple complex (C. floridanus) (UniProt E2AXC7); assay: as above
[10] = molecular target: H. Sapiens ARISC (BRCC36–Abraxas–BRCC45–MERIT40) complex (H. sapiens) (UniProt P46736); assay: as above

- Kd [1]: 2200 nM
Substance: BRCC36 (E30A+A205D+I212D)-KIAA0157ΔC complex (from UniProt E2AXC7 1-253)

- Kd [1]: 2400 nM
Substance: BRCC36(E30A)-KIAA0157ΔC complex (from UniProt E2AXC7 1-253)

- percent eluting as super dimers [4]: 15%
Substance: CfBRCC36(Ala205Asp + Ile212Asp)–KIAA0157ΔC heterodimer (complex)

- cleavage of a K63-linked diUb fluorigenic substrate in vitro, at near saturating substrate concentrations (>10 μM diUb) (fold less active than WT) [5]: 10
Substance: CfBRCC36(Ala205Asp)–KIAA0157ΔC heterodimer (complex)

- cleavage of a K63-linked diUb fluorigenic substrate in vitro, at near saturating substrate concentrations (>10 μM diUb) (fold less active than WT) [6]: 10
Substance: CfBRCC36(Ile212Asp)–KIAA0157ΔC heterodimer (complex)

The remaining lines, values behind:

Substance: Cf BRCC36–KIAA0157 binary complex (from UniProt E2AXC7 1-253)
- stoichiometry N [2]: 2

Substance: CfBRCC36(Ala205Asp + Ile212Asp)–KIAA0157ΔC heterodimer
- percent eluting as a monomer of heterodimers [3]: 85% major peak

Substance: CfBRCC36(Ala205Asp)–KIAA0157ΔC heterodimer
- percent eluting as monomers of heterodimers [3]: 70% and 36% of proteins, respectively, eluting as monomers of heterodimers

Substance: CfBRCC36(Ile212Asp)–KIAA0157ΔC heterodimer
- percent eluting as monomers of heterodimers [3]: 70% and 36% of proteins, respectively, eluting as monomers of heterodimers

Substance: CfBRCC36–KIAA0157ΔC heterodimer (complex)
- Km, Michaelis-Menten kinetic analysis for cleavage of K63 diUb (Figure 6B) [7]: 4.2 µM
- stoichiometry N [8]: 2

Substance: CfBRCC36–KIAA0157–BRCC45 triple complex (from UniProt E2AXC7 1-253)
- stoichiometry N [9]: 2

Substance: H. Sapiens ARISC (BRCC36–Abraxas–BRCC45–MERIT40) complex (from UniProt P46736 1-316; Q6UWZ7 1-409; Q9NXR7 1-383; Q9NWV8 1-329)
- stoichiometry N [10]: 2
